The results in this text go back to article PMC3538150 (Cell reports, 2012).

Where no end group is shown, it is not given here.

The term Kd denotes the equilibrium constant for the complex coming apart. A low value points to higher affinity. Usually stoichiometry N stands for a count of units in the complex or per binding partner.

The target in experiment [1] is T1, DNA ligase IV DNA binding domain (LigIV-DBD; residues 1-240), wild type (human, UniProt P49917 1-240).
T1 sequence (looked up): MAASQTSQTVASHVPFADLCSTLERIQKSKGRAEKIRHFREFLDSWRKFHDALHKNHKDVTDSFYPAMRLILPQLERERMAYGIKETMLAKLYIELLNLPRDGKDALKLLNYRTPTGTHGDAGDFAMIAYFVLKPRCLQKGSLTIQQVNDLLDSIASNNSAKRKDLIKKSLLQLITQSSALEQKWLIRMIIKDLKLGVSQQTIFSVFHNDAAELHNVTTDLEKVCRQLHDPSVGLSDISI
The experiment in a line: fluorescence polarisation. (Polarisation of emitted light reports the rotation of a fluorescent probe.)

Experiment [2] concerns the target T1, DNA ligase IV DNA binding domain …. The experiment in a line: ITC. For orientation: In ITC the heat of successive injections is recorded.
The target in a further experiment is T2, LigIV-DBD D18H (human, UniProt P49917 1-240, D18H).
T2 sequence (looked up): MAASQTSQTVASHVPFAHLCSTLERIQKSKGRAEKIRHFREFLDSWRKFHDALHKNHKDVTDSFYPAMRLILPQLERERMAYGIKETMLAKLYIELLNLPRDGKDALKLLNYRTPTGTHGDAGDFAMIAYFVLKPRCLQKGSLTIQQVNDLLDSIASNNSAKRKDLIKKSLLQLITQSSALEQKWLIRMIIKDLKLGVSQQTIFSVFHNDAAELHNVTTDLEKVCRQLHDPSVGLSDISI
Put plainly: ITC.

A further experiment has as its target T3, LigIV-DBD V14A (human, UniProt P49917 1-240, V14A).
T3 sequence (looked up): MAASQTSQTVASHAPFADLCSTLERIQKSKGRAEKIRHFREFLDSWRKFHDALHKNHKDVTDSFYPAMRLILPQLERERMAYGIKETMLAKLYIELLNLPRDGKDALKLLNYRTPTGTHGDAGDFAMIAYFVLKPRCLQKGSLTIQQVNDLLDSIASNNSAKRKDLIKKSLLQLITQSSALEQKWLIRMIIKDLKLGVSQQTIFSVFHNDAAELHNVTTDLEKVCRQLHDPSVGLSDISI
Put plainly: ITC.

B1: 6-FAM (6-carboxyfluorescein) labeled cArt-Pep (peptide)
peptide: DVPQWEVFFKR
modifications: also: 6-FAM label, position not given here
Regarding B1, the binding result in experiment [1] is “binds”.

B2: cArt-Pep, peptide derived from the Artemis C-terminal region (485-DVPQWEVFFKR-495) (peptide)
peptide: DVPQWEVFFKR
B2: the Kd in experiment [2] was 4.8 µM; in the experiment with LigIV-DBD D18H, 9.1 µM; with LigIV-DBD V14A it was 13.6 µM. In addition, the “stoichiometry N” value in experiment [2] was 1 ± 0.1.
